Non-standard residues stand in square brackets, D forms with d. No end group written: not given here.

Chain of A-beta peptide (1-42) (P05067 672-713): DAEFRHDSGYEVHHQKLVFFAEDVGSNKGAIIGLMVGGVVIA

One assay has as its target A-beta peptide (1-42) (Homo sapiens, UniProt P05067). The assay is described as follows: ThT seeding assay. The format is biochemical. To be noted: coaggregates formed with 20 μM inhibitor, 7 days at 37° C., 10 mM NaPi pH 7.4; mixed 20:80 with fresh Aβ 20 μM, 10 μM ThT, fluorescence over 20 h.
For rpitrlhtnrnr [DB1], the “seeding effect of preformed Abeta-inhibitor coaggregates (ability to increase the rate of the aggregation of fresh Abeta / shorten the lag phase)” value is “no seeding effect”.
In the case of “rpitrlqtheqr ([dR][dP][dI][dT][dR][dL][dQ][dT][dH][dE][dQ][dR]) [DB5]”, the “seeding effect of preformed Abeta-inhibitor coaggregates (ability to increase the rate of the aggregation of fresh Abeta / shorten the lag phase)” value is “no seeding effect”.
With “rpitrlrthqnr ([dR][dP][dI][dT][dR][dL][dR][dT][dH][dQ][dN][dR]) [DB3]”, the “seeding effect of preformed Abeta-inhibitor coaggregates (ability to increase the rate of the aggregation of fresh Abeta / shorten the lag phase)” value is “no seeding effect”.
Same read-out and setting: the value for “rpittlqthqnr ([dR][dP][dI][dT][dT][dL][dQ][dT][dH][dQ][dN][dR]) [DB2]” was “no seeding effect”; that for “rprtrlhthrnr ([dR][dP][dR][dT][dR][dL][dH][dT][dH][dR][dN][dR]) [D3]” was “no seeding effect”; that for “rprtrlrthqnr ([dR][dP][dR][dT][dR][dL][dR][dT][dH][dQ][dN][dR]) [DB4]” was “no seeding effect”.

The same assay, now with this note: inhibitor-Abeta coaggregates added to fresh Aβ 20 μM, ThT fluorescence over 20 h.
As to “rprtrlrthqnr ([dR][dP][dR][dT][dR][dL][dR][dT][dH][dQ][dN][dR]) [DB4]”, the “formation of ThT-positive Abeta aggregates in the later phase” value is “appear to reduce the formation of ThT-positive Abeta aggregates in the later phase”.

These data come from patent US9591845B2, “Method for treating blood, blood products and organs” (FORSCHUNGSZENTRUM JUELICH GMBH, priority 2012, dated 2017).
